The values that follow come from publication PMC8286842, “The structures of E. coli NfsA bound to the antibiotic nitrofurantoin; to 1,4-benzoquinone and to FMN” (Biochemical Journal, 2021).

In general, kcat refers to the number of substrate molecules converted per active site and unit of time at saturation. As a reminder, the kcat/Km is the second-order rate constant that governs catalysis at low substrate concentration.

What all share (assay type): biochemical, Escherichia coli
Substrate in data set [1]: NC(=O)C1=CN([C@@H]2O[C@H](COP(=O)(O)OP(=O)(O)OC[C@H]3O[C@@H](n4cnc5c(N)ncnc54)[C@H](OP(=O)(O)O)[C@@H]3O)[C@@H](O)[C@H]2O)C=CC1
The experiment in a line: steady-state kinetics, purified enzyme (global ping-pong fit with nitrofurantoin). The following applies: FMN; pH 7.0; 25.0 °C; varied: cofactor.

Substrate in data set [2]: NC(=O)N/N=C/c1ccc([N+](=O)[O-])o1
The experiment in a line: steady-state kinetics of reduction by NADPH, purified enzyme. The settings on record: FMN; pH 7.0; 25.0 °C.

Substrate in data set [3]: NC(=O)c1cc(N2CC2)c([N+](=O)[O-])cc1[N+](=O)[O-]
The description is as above. The settings on record: FMN; pH 7.0; 25.0 °C.

Substrate in data set [4]: CC1=CC(=O)c2ccccc2C1=O
The experiment in a line: purified protein. The settings on record: FMN; pH 7.0; 25.0 °C.

Substrate in data set [5]: O=C1C=CC(=O)C=C1
In words: purified protein. The following applies: FMN active site, stacked on FMN; O2′ hydroxyl of FMN, backbone NH of Ser […], Gln […], close to Arg […]; a separate, additional quinol ring appears covalently attached at Cys […]; pH 7.0; 25.0 °C.

Substrate in data set [6]: O=C1CN(/N=C/c2ccc([N+](=O)[O-])o2)C(=O)N1
In words: purified protein. The following applies: FMN active site, parallel to the FMN ring; hydrogen bonds involving Arg […], Lys […], Arg […] and Ser […]; pH 7.0; 25.0 °C.

B1: NfsA (Escherichia coli K-12) (protein)
chain: MTPTIELICGHRSIRHFTDEPISEAQREAIINSARATSSSSFLQCSSIIRITDKALREELVTLTGGQKHVAQAAEFWVFCADFNRHLQICPDAQLGLAEQLLLGVVDTAMMAQNALIAAESLGLGGVYIGGLRNNIEAVTKLLKLPQHVLPLFGLCLGWPADNPDLKPRLPASILVHENSYQPLDKGALAQYDEQLAEYYLTRGSNNRRDTWSDHIRRTIIKESRPFILDYLHKQGWATR
notes: untagged, dimer
B1: the Km in data set [1] is given as 10.9 ± 1.6 (Km) µM; in data set [2], 13 ± 2 (Km) µM; in data set [3] it was 190 ± 20 (Km) µM; in “purified protein [4]”, 11 ± 2 (Km app) µM; in the data set “purified protein [5]”, 3 ± 0.4 (Km app) µM; in the data set “purified protein [6]”, 20.6 ± 1.6 (Km) µM. For the same protein, the kcat was determined as 81 ± 3 s⁻¹ in data set [1]; 29.6 ± 0.9 s⁻¹ in data set [2]; 42 ± 1 s⁻¹ in data set [3]; 9 ± 0.4 s⁻¹ in the data set “purified protein [4]”; 24 ± 0.8 s⁻¹ in the data set “purified protein [5]”; 81 ± 3 s⁻¹ in the data set “purified protein [6]”. Further, the kcat/Km turned out to be 7.4e+06 ± 1e+06 M⁻¹ s⁻¹ in data set [1]; 2.3e+06 ± 200000 M⁻¹ s⁻¹ in data set [2]; 230000 ± 2000 M⁻¹ s⁻¹ in data set [3]; 820000 ± 80000 M⁻¹ s⁻¹ in the data set “purified protein [4]”; 8e+06 ± 800000 M⁻¹ s⁻¹ in the data set “purified protein [5]”; 3.9e+06 ± 200000 M⁻¹ s⁻¹ in “purified protein [6]”.
